Reference: patent CN113912709A (SHENZHEN NATIONAL CLINICAL RES CENTER FOR INFECTIOUS …, dated 2022)
Residue numbers refer to the chain shown, from its start.

B1: VacW-201 (antibody, V domains shown)
VH: EVQLVESGGGLVQPGGSLRLSCAASGFTFSSYWMNWVRQAPGKGLEWVANIKQDGSEKYYVDSVKGRFTISRDNAKNSLYLQMNSLRAEDTAVYYCARMEYPYGGVDYWGQGTLVTVSS
VL: NFMLTQPHSVSESPGKTVTISCTGSSGSIASNYVQWYQQRPGSAPTTVIYEDNQRPSGVPDRFSGSIDSSSNSASLTISGLKTEDEADYYCQSYDSSNRNWVFGGGTKLTVL
B2: VacW-215 (antibody, V domains shown)
VH: EVQLVESGGGLIQPGGSLRLSCAASGFTVSSNYMSWVRQAPGKGLEWVSVIYSGGSTYYADSVKGRFTISRDNSKNTLYLQMNSLRAEDTAVYYCARSTWLRGGFDYWGQGTLVTVSS
VL: B1 VL with R99H, N100F, W101Y, G105T, L109V
B3: VacW-212 (antibody, V domains shown)
VH: B1 VH with G55E, Y80F, A88V, V106I, S119A
VL: B1 VL
B4: VacW-138 (antibody, V domains shown)
VH: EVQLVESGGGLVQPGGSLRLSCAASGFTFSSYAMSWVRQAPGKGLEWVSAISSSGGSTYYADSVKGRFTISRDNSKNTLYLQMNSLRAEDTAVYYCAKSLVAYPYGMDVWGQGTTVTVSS
VL: AIQLTQSPFSLSASVGDRVTITCRASQGISSALAWYQQKPGKAPKLLIYDASSLESGVPSRFSGSGSGTDFTLTISSLQPEDFATYFCQQVDTYQFTFGPGTKVDIK
B5: VacW-209 (antibody, V domains shown)
VH: QVQLVESGGGVVQPGRSLRLSCAASGFTFSSIAMHWVRQAPGKGLEWVAVMSFDGSIKYYGDSVKGRFTISRDNSKSTLYLQMNSLRAEDTAVYYCARGVQGYYDRSGYYNLDYNYGMDVWGQGTTVTVSS
VL: QSVLTQPPSVSGAPGQRVTISCTGSSSNIGAGYDVHWYQQLPGTAPKLLIYGNSNRPSGVPDRFSGSKSGTSASLAITGLQAEDEADYYCQSYDSSLSGWVFGGGTKLTVL
B6: VacW-105 (antibody, V domains shown)
VH: QVQLVQSGAEVKKPGSSVKVSCKASGGTFRSYTISWVRQAPGQGLEWMGRILPILGIANYAQKFQGRVTITADKSTSTAYMELSSLRSEDTAVYYCARVTGAPVESAAWFDPWGQGTLVTVSS
VL: not shown

Key:
[1] = target: T1, SARS-CoV-2 wild-type RBD protein (SARS-CoV-2, UniProt P0DTC2 319-541); assay: SPR, Biacore 8K, RBD on CM5 chip, IgG injected, 1:1 model
T1 construct: domain: RBD

[2] = target: SARS-CoV-2 wild-type spike protein (on pseudovirus) (SARS-CoV-2, UniProt P0DTC2 14-1273); assay: cell-based or functional assay

Binder	Kd [1] [pM]	假病毒中和试验 IC50 [2] [µg/mL]
B1	880	–
B2	405	–
B3	653	–
B4	1100	–
B5	11.3	0.03
B6	1640	–
